Test results published in article PMC4672576, “Beninese children with cerebral malaria do not develop humoral immunity against the IT4-VAR19-DC8 PfEMP1 variant linked to EPCR and brain endothelial binding” (Malaria Journal, 2015).

B2: Recombinant soluble EPCR with a 6x His tag (EPCRH) (receptor, human, UniProt Q9UNN8 18-210, looked up)
chain: SQDASDGLQRLHMLQISYFRDPYHVWYQGNASLGGHLTHVLEGPDTNTTIIQLQPLQEPESWARTQSGLQSYLLQFHGLVRLVHQERTLAFPLTIRCFLGCELPPEGSRAHVFFEVAVNGSSFVSFRPERALWQADTQVTSGVVTFTLQQLNAYNRTRYELREFLEDTCVQYVQKHISAENTKGSQTSRSYTS
notes: Endothelial protein C receptor, human, extracellular region residues S18-S210, amplified from a human lung endothelium cDNA library; glycosylated (migrates at about 40 kDa); also called recombinant EPCR; not shown: His6, C-terminal, kept

Legend:
[1] = biological target: B2; assay: SPR; EPCRH immobilised on a CM5 chip by amine coupling (1324 RU); IT4-VAR19 proteins injected 180 s, dissociation 400 s; HBS-EP buffer, 25 °C; Biacore X100; global 1:1 Langmuir fit; details: both partners purified
[2] = biological target: T1, VAR19-NTS-DBLγ6 (N-terminal region of IT4-VAR19 comprising the full-length DC8 cassette) (Plasmodium falciparum (IT4 strain), UniProt A3R6S3 2-1713); assay: as above; details: both partners purified
T1 construct: PfEMP1 IT4-VAR19, Plasmodium falciparum IT4 (FCR3) strain, residues G2-P1713 (NTS, DBLα2, CIDRα1.1, DBLβ12, DBLγ6); synthetic codon-optimised gene; also called NTS-DBLɣ6; IT4-VAR19-DC8 cassette; not shown: His6, C-terminal, kept

B1: VAR19-CIDRα1.1 (domain or fragment)
chain: SVECFHSWAKNLLIDTIRWEHQLKNCINNTNVTDCTSKCIKNCECYEKWIKEKEKEWPQVKGVLKKKDETSHNYYDKLKDVFDRFLFEVKGALDQDEKGKWDQFTKDLEKKFGPSVESAGTANSQDAIELLLDHLNDNATTCKDNNSLAVENCPKTKINP
notes: PfEMP1 IT4-VAR19, CIDRα1.1 domain, residues S580-P739, amplified from IT4 genomic DNA
Kd [1]: 340 nM | koff [1]: 0.012 s⁻¹ | kon [1]: 35000 M⁻¹ s⁻¹

B2
Kd [2]: 52 nM | koff [2]: 0.0011 s⁻¹ | kon [2]: 22000 M⁻¹ s⁻¹
